Test results from patent US8852550B2, “Chelator conjugates” (GE Healthcare Limited, priority 2001, dated 2014).
Ends that are not written are not given here. Compound 1 = not defined here

Columns and labels:
[1] = 99mTc labelling of Compound 5, radiochemical purity by ITLC and HPLC (Example 11); format: physicochemical
Experimental: A freeze-dried formulation containing: • 50 μg PABA (para-aminobenzoic acid), • 30 μg SnCl2, • 90 μg MDP (methylenediphosphonic acid), • 1.32 mg NaHCO3, • 98 μg Na2CO3, • 4 mg NaOAc, was sealed under nitrogen gas in a 10 ml glass vial. The vial was removed from freezer storage and left at room temperature for 15 minutes, and was then reconstituted with 100 μl of a solution containing Compound 5, ie. the peptide-chelator conjugate Ac-Asn-Gln-Glu-Gln-Val-Ser-Pro-(I-Tyr)-Thr-Leu-Leu-Lys-Gly-[Compound 1] (2 mg in 2 ml water) and Xml of ^99mTc-pertechnetate in saline, with a radioactive concentration of 0.5 GBq/ml, from an Amertec II ^99mTc generator at room temperature. The activity was measured using an ion chamber. The RCP was measured using ITLC and HPLC. The results are shown in Table 3 for different values of X: […]

[2] = 99mTc labelling of Compound 9, radiochemical purity by ITLC and HPLC (Example 13); format: physicochemical
Experimental: Compound 9 was prepared in an analogous manner to Examples 7 and 8, and labelled with ^99mTc in solution (Preparation 1) or via a freeze-dried kit according to Example 10 (Preparation 2).
For Preparation 1, 100 μg of Compound 9 was dissolved in 1 ml of pH 8.5 borate buffer. This was transferred to a P6 vial and sealed. 1 ml ^99mTc-pertechnetate in saline (1.0 GBq/ml, from an Amertec II generator) was added at room temperature, together with 0.1 ml SnCl2 solution (10 mg SnCl2 in 100 ml N2 purged saline). The activity was measured using an ion chamber. The RCP was measured using ITLC and HPLC.

[3] = Prep 1, X 2 ml, 1.04 GBq, 255 min post-reconstitution
[4] = Prep 2, X 2 ml, 1 GBq, 15 min post-reconstitution
[5] = Prep 3, X 5 ml, 2.47 GBq, 15 min post-reconstitution

Row | Substance | RCP % (ITLC) ([1]; Prep 1, X 2 ml, 1.04 GBq, 15 min post-reconstitution) [%] | RCP % (HPLC) [1, 3] [%] | RCP % (ITLC) [1, 3] [%] | RCP % (HPLC) [1, 4] [%] | RCP % (ITLC) [1, 4] [%] | RCP % (HPLC) ([1]; Prep 2, X 2 ml, 1 GBq, 60 min post-reconstitution) [%] | RCP % (HPLC) [1, 5] [%] | RCP % (ITLC) [1, 5] [%] | RCP % (HPLC) ([1]; Prep 3, X 5 ml, 2.47 GBq, 150 min post-reconstitution) [%] | RCP % (ITLC) ([1]; Prep 4, X 2 ml, 1.02 GBq, 15 min post-reconstitution) [%] | RCP % (HPLC) ([1]; Prep 4, X 2 ml, 1.02 GBq, 140 min post-reconstitution) [%] | RCP by ITLC ([2]; Preparation 1: in solution, pH 8.5 borate buffer, room temperature) [%] | RCP by HPLC ([2]; Preparation 2: freeze-dried kit according to Example 10) [%]
1 | Ac-Asn-Gln-Glu-Gln-Val-Ser-Pro-(I-Tyr)-Thr-Leu-Leu-Lys-Gly-[Compound 1] (chain 1 Ac-NQEQVSP; chain 2 TLLKG-{Compound 1}; not fully specified (C-terminus); reading uncertain; also: chains 1 and 2 joined in one chain through I-Tyr) [Compound 5, peptide-chelator conjugate of Compound 1 with thrombus-targeting peptide] | 99.4 | 86.8 | 99.2 | 83.0 | 99.3 | 85.2 | 86.5 | 99.3 | 87.6 | 99.1 | 86.6 | – | –
2 | [Compound 1]-Cys-Cys-Glu-Leu-Cys-Cys-Asn-Pro-Ala-Cys-Ala-Cys-Tyr-OH ({Compound 1}-CCELCCNPACACY-OH; reading uncertain; also: cyclic, bridges not given here, printed as [Compound 1]-Cys-Cys-Glu-Leu-Cys-Cys-Asn-Pro-Ala-Cys-Ala-Cys-Tyr-OH) [Compound 9] | – | – | – | – | – | – | – | – | – | – | – | 96 | 82
